Target: SARS-CoV-2 receptor-binding domain (RBD) (SARS-CoV-2, UniProt P0DTC2)
Test: SPR

B1: 7D6 monoclonal antibody (antibody, V domains shown)
VH: EVQLQQSGAELVRPGASVKLSCTASGFNIKDTYIHWVKQRPEQGLEWIGRIDPGDGDTEYDPSFQGKATITADTSSNTAYLELSSLTSEDTAVYYCTRFYDYVDYGMDYWGQGTSVTVSS
VL: DIQMTQSPASLSASVGETVTITCRASGNIHNYLAWYQQKQGKSPQLLVYNAKTLADGVPSRFSGSGSGTQYSLKINSLQPEDFGSYYCQHFWSTPPWTFGGGTKLEVK
  Kd: 3 pM

Source: PMC8476643 (2021)
